{"source": "paper PMC12381709", "about": "“Fluorinating the Sugar and the Nucleotide: Exploring Fluorination Within GDP-Mannose Probes Using Chemoenzymatic Synthesis” (JACS Au, 2025)", "assay_in_all_cases": "purified protein", "details_in_all_cases": "co-substrate NAD+", "key": {"[1]": {"test_system": "Nc1nc2c(ncn2[C@@H]2O[C@H](COP(=O)(O)OP(=O)(O)O[C@H]3O[C@H](CO)[C@@H](O)[C@H](O)[C@@H]3F)[C@@H](O)[C@H]2F)c(=O)[nH]1"}, "[2]": {"test_system": "Nc1nc2c(ncn2[C@@H]2O[C@H](COP(=O)(O)OP(=O)(O)O[C@H]3O[C@H](CO)[C@@H](O)[C@H](O)[C@@H]3O)[C@@H](O)[C@H]2F)c(=O)[nH]1"}, "[3]": {"test_system": "Nc1nc2c(ncn2[C@@H]2O[C@H](COP(=O)(O)OP(=O)(O)O[C@H]3O[C@H](CO)[C@@H](O)[C@H](O)[C@@H]3F)[C@@H](O)[C@H]2O)c(=O)[nH]1"}, "[4]": {"test_system": "Nc1nc2c(ncn2[C@@H]2O[C@H](COP(=O)(O)OP(=O)(O)O[C@H]3O[C@H](CO)[C@@H](O)[C@H](O)[C@@H]3O)[C@@H](O)[C@H]2O)c(=O)[nH]1"}}, "data": [{"substance": "GDP-mannose dehydrogenase (GMD; PaGMD) (Pseudomonas aeruginosa PAO1)", "values": [{"measurement": "Km", "setting": "[1]", "result": "87.72 ± 5.82", "unit": "µM"}, {"measurement": "kcat", "setting": "[1]", "result": "0.0407 ± 0.0012", "unit": "s⁻¹"}, {"measurement": "Km", "setting": "[2]", "result": "20.95 ± 0.83", "unit": "µM"}, {"measurement": "kcat", "setting": "[2]", "result": "0.0507 ± 0.00067", "unit": "s⁻¹"}, {"measurement": "Km", "setting": "[3]", "result": "134.29 ± 12.78", "unit": "µM"}, {"measurement": "kcat", "setting": "[3]", "result": "0.0655 ± 0.00267", "unit": "s⁻¹"}, {"measurement": "Km", "setting": "[4]", "result": "18.18 ± 3.82", "unit": "µM"}, {"measurement": "kcat", "setting": "[4]", "result": "0.0427 ± 0.00333", "unit": "s⁻¹"}]}]}
